These results are taken from EP1161262B1 (University of Maryland, Baltimore, dated 2008).

The target of experiment [1] is T1, colligin/Hsp47 on the surface of human carcinoma cells (human, UniProt P50454 19-418).
T1 construct: whole, on cells; Endogenous protein on cells or in plasma membrane preparations and lysates of surface-biotinylated human SCC cells; also called CBP2; colligin/CBP2/Hsp47
T1 sequence (looked up): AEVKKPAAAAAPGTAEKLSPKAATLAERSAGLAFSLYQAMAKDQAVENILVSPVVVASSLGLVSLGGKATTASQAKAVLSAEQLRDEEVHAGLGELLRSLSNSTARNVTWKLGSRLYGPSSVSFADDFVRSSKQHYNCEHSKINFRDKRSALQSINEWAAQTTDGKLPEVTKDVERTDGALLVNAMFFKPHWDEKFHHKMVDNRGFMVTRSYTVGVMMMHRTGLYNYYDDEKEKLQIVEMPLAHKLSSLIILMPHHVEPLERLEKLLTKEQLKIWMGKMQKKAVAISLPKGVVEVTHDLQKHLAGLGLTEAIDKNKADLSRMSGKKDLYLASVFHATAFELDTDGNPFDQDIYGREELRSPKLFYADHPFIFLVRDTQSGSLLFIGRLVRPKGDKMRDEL
Nature of the experiment: DSP cross-linking of surface-labelled cells, immunoprecipitation with anti-CD81 mAbs.

Experiment [2] concerns the target T2, colligin/Hsp47 of the murine Lewis Lung Carcinoma (LL/2) cell line (murine, UniProt P19324 18-417).
T2 construct: whole, on cells; Endogenous protein of LL/2 cells
T2 sequence (looked up): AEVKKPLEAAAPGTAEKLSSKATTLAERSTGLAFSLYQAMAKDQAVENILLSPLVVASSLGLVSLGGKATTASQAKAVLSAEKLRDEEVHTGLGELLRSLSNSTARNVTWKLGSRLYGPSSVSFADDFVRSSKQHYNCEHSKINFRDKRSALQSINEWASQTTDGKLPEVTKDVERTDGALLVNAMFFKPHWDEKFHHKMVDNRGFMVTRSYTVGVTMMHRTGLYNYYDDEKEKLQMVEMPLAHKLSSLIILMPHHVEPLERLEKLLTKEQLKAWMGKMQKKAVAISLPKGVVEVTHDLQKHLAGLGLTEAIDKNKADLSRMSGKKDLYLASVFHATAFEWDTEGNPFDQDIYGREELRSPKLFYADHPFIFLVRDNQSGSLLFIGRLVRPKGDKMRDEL
The description is as above.

B1: CD81 of human SCC cells (other, UniProt P60033 1-236, looked up)
chain: MGVEGCTKCIKYLLFVFNFVFWLAGGVILGVALWLRHDPQTTNLLYLELGDKPAPNTFYVGIYILIAVGAVMMFVGFLGCYGAIQESQCLLGTFFTCLVILFACEVAAGIWGFVNKDQIAKDVKQFYDQALQQAVVDDDANNAKAVVKTFHETLDCCGSSTLTALTTSVLKNNLCPSGSNIISNLFKEDCHQKIDDLFSGKLYLIGIAAIVVAVIMIFEMILSMVLCCGIRNSSVY
notes: whole, on cells
For the molecule B1, the binding result in experiment [1] is recorded as “no binding”.

B2: CD81 of murine LL/2 cells (other, UniProt P35762 1-236, looked up)
chain: MGVEGCTKCIKYLLFVFNFVFWLAGGVILGVALWLRHDPQTTSLLYLELGNKPAPNTFYVGIYILIAVGAVMMFVGFLGCYGAIQESQCLLGTFFTCLVILFACEVAAGIWGFVNKDQIAKDVKQFYDQALQQAVMDDDANNAKAVVKTFHETLNCCGSNALTTLTTTILRNSLCPSGGNILTPLLQQDCHQKIDELFSGKLYLIGIAAIVVAVIMIFEMILSMVLCCGIRNSSVY
notes: whole, on cells
As to B2, the binding result in experiment [2] is listed as “no binding”.
